Results on eight substances are retold here after article PMC2191888.

As a reminder, the Kd is the equilibrium constant for the complex coming apart. What is called IC50 is the concentration at which inhibition is half-maximal. A higher IC50 goes with lower potency.

In this assay the target is MCP-1 receptor(s) on THP-1 cells (human (endogenous in THP-1)) (UniProt P41597). Briefly: radioligand binding.
Take “MCP-1 2-76 analogue (from UniProt P13500 25-99) (domain or fragment)”: the Kd was 385 nM. For “Monocyte chemoattractant protein 1 (MCP-1), synthetic, NH2-terminal pyroglutamate form (from UniProt P13500 24-99) (ligand)”, the equilibrium dissociation constant (Kd) was determined as 2.8 nM.

As for “MCP-1 5-76 analogue (from UniProt P13500 28-99) (domain or fragment)”, the equilibrium dissociation constant (Kd) came to 23 nM. Turning to “MCP-1 11-76 analogue (from UniProt P13500 34-99) (domain or fragment)”, the fold higher Kd than MCP-1 turned out to be 48 fold. Take “MCP-1 9-76 analogue (from UniProt P13500 32-99) (domain or fragment)”: the IC50 is 17 nM and the dissociation constant (Kd) is 8.3 nM. “MCP-1 3-76 analogue (from UniProt P13500 26-99) (domain or fragment)”: the equilibrium dissociation constant (Kd) worked out at 487 nM. Consider “MCP-1 (Ac) (from UniProt P13500 24-99) (ligand)”, for which the dissociation constant Kd turned out to be 333 nM. In the case of “MCP-1 10-76 analogue (from UniProt P13500 33-99) (domain or fragment)”, the fold higher Kd than MCP-1 came to 13 fold.
